Residue numbers refer to the chain shown, from its start.
T1: human HPF1 C285H (human, UniProt Q9NWY4 1-346, C285H)
T1 construct: HPF1, human; not shown: His6, N-terminal, cleaved
T1 sequence (looked up): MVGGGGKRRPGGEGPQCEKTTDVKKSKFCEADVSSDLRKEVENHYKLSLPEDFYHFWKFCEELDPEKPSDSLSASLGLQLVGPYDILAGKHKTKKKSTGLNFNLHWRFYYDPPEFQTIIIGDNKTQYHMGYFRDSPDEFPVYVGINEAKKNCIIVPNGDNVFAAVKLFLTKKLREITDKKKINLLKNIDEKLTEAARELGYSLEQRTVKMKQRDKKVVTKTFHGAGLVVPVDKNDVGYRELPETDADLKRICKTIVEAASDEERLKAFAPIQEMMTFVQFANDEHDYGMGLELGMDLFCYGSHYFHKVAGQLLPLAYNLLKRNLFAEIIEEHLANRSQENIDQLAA

T2: human HPF1 E284A (human, UniProt Q9NWY4 1-346, E284A)
T2 construct: HPF1, human; not shown: His6, N-terminal, cleaved
T2 sequence (looked up): T1 sequence (looked up) with E284A, H285C

T3: human HPF1 F280A (human, UniProt Q9NWY4 1-346, F280A)
T3 construct: HPF1, human; not shown: His6, N-terminal, cleaved
T3 sequence (looked up): T1 sequence (looked up) with F280A, H285C

T4: human HPF1 E138K (human, UniProt Q9NWY4 1-346, E138K)
T4 construct: HPF1, human; not shown: His6, N-terminal, cleaved
T4 sequence (looked up): T1 sequence (looked up) with E138K, H285C

T5: human HPF1 K216E (human, UniProt Q9NWY4 1-346, K216E)
T5 construct: HPF1, human; not shown: His6, N-terminal, cleaved
T5 sequence (looked up): T1 sequence (looked up) with K216E, H285C

T6: human HPF1 R239A (human, UniProt Q9NWY4 1-346, R239A)
T6 construct: HPF1, human; not shown: His6, N-terminal, cleaved
T6 sequence (looked up): T1 sequence (looked up) with R239A, H285C

T7: human HPF1 F139S (human, UniProt Q9NWY4 1-346, F139S)
T7 construct: HPF1, human; also called HPF F139S; not shown: His6, N-terminal, cleaved
T7 sequence (looked up): T1 sequence (looked up) with F139S, H285C

T8: human HPF1 K307S (human, UniProt Q9NWY4 1-346, K307S)
T8 construct: HPF1, human; not shown: His6, N-terminal, cleaved
T8 sequence (looked up): T1 sequence (looked up) with H285C, K307S

B1: human HPF1 (histone PARylation factor 1), wild-type (natural protein, UniProt Q9NWY4 1-346, looked up)
chain: T1 sequence (looked up) with H285C
notes: HPF1 (C4orf27), human; TEV site ENLYFQG between the His tag and the protein; the tag was removed with TEV protease; also called C4orf27; not shown: His6, N-terminal, cleaved
B2: human PARP1-CAT ΔHD (661-678-GSGSGSGG-787-1014) (domain or fragment)
chain: TKSKLPKPVQDLIKMIFDGSGSGSGGKDPIDVNYEKLKTDIKVVDRDSEEAEIIRKYVKNTHATTHNAYDLEVIDIFKIEREGECQRYKPFKQLHNRRLLWHGSRTTNFAGILSQGLRIAPPEAPVTGYMFGKGIYFADMVSKSANYCHTSQGDPIGLILLGEVALGNMYELKHASHISKLPKGKHSVKGLGKTTPDPSANISLDGVDVPLGTGISSGVNDTSLLYNEYIVYDIAQVNLKYLLKLKFNFKTSLW
notes: PARP1, human, catalytic domain, residues 661-678; linker that replaces residues 679-786 (most of the HD subdomain); PARP1, human, catalytic domain (ART), residues 787-1014; also called CAT△HD; not shown: His6, N-terminal, cleaved

How the values were obtained:
Test in all cases: ITC; HPF1 wild-type or mutant 0.3 or 0.4 mM in the syringe, PARP1 CAT-ΔHD (or full-length CAT) 0.02 mM in the cell; 25 °C; 20 mM Tris-pH 8.0, 150 mM NaCl, 1 mM TCEP, 1 mM MgCl2
Conditions in all cases: both partners purified
[1] = target: B2
human HPF1 C285H = target: T1, human HPF1 C285H
human HPF1 E284A = target: T2, human HPF1 E284A
[2] = target: B1
human HPF1 F280A = target: T3, human HPF1 F280A
human HPF1 E138K = target: T4, human HPF1 E138K
human HPF1 K216E = target: T5, human HPF1 K216E
human HPF1 R239A = target: T6, human HPF1 R239A
human HPF1 F139S = target: T7, human HPF1 F139S
human HPF1 K307S = target: T8, human HPF1 K307S
[3] = target: B1; remark: listed apart in the source

| Binder | stoichiometry N [1] | Kd (human HPF1 C285H) | Kd (human HPF1 E284A) | Kd [2] | Kd (human HPF1 F280A) | Kd (human HPF1 E138K) | Kd (human HPF1 K216E) | Kd (human HPF1 R239A) | Kd (human HPF1 F139S) | Kd (human HPF1 K307S) | Ka [3] | Kd [3] |
| --- | --- | --- | --- | --- | --- | --- | --- | --- | --- | --- | --- | --- |
| B1 | 1 | – | – | – | – | – | – | – | – | – | – | – |
| B2 | – | 28.7 µM | 0.3 µM | 1.5 µM | 6 µM | 1.7 µM | 1.4 µM | 2.4 µM | 2.4 µM | 9.3 µM | 758000 M⁻¹ | ~1.3 µM |

— PMC7884425, “HPF1 remodels the active site of PARP1 to enable the serine ADP-ribosylation of histones” (Nature Communications, 2021)
